Article PMC7959576 (Proceedings of the National Academy of Sciences of the …, 2020)

Biological target: CHIKV VLPs, E1-E2 heterodimers on the particle surface (Chikungunya virus, VLP strain not …, UniProt Q5XXP3)
Assay: ELISA

CHIKV VLPs, E1-E2 heterodimers on the particle surface, sequence (Q5XXP3 whole entry, looked up, one chain of several): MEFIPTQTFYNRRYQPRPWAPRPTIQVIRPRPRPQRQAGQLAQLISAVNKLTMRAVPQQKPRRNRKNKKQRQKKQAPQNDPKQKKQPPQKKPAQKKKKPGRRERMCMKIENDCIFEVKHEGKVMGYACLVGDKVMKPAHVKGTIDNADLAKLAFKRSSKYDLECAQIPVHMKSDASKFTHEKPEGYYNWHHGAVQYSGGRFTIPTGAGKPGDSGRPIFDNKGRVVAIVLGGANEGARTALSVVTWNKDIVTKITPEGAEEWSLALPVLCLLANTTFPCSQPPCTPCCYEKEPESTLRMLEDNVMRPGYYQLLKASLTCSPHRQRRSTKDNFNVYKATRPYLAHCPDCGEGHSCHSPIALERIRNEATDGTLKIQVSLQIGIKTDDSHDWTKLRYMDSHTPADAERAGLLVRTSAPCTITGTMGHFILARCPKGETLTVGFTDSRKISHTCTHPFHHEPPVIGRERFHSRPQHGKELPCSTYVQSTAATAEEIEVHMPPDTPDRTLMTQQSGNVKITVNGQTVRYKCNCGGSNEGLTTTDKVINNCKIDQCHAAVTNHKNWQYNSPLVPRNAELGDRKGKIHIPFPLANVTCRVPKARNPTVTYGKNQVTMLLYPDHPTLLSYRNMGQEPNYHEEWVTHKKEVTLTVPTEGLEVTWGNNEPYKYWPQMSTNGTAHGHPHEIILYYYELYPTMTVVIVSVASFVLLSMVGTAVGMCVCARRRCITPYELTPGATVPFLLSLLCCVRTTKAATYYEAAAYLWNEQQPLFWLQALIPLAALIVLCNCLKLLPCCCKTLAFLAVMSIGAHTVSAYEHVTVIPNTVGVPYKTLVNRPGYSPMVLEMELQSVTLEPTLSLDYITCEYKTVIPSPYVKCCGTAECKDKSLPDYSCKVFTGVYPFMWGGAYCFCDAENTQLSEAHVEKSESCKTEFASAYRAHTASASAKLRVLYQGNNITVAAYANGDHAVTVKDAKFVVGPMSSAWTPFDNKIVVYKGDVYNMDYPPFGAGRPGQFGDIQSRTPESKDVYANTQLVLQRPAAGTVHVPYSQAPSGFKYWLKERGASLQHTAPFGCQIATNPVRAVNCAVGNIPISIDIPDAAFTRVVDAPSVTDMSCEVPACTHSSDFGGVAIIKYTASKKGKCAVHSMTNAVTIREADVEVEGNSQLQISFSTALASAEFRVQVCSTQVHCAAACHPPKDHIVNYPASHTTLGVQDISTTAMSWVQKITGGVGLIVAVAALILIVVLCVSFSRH

B1: CHK-124 IgG (antibody, V domains shown)
VH: QLQESGGGLVQPGGSMKLSCVASGFTFSNYWMNWVRQSPEKGLEWVAQIRLKSDSYATYYADSVKGRFTVSRDDSKSNVYLQMNSLRAEDTGIYYCTDFYGFGDFFPYWGQGTLVTVSS
VL: DIVMTQSPKFMSTSIGDRVSVTCQASQNVGTNVAWYQQKPGQSPKPLIYSASYRYSGVPGRFTGSGSGTDFTLTINNVQSEDLADYFCQQYNSFPLTFGAGTKLELK
B1: binds.

B2: CHK-263 IgG (antibody, V domains shown)
VH: VQLQQSGAELVKPGASVKISCKASGYAFSSYWMNWVKQRPGKGLEWIGQIYPGDGDTNYNGKFKGKATLTADKSSSTAYMQLSSLTSEDSAVYFCARGGLTIDYWGQGTTLTVSS
VL: DIVLTQSPATLSVTPGDSVSLSCRASQSISDNLHWYQQKSHESPGLLIKYASQSISGIPSRFSGSGSGTDFTLSINSVETEDFGMYFCQQSNSWPYTFGGGTKLEIK
B2: binds.
